# According to publication PMC11747444:
# Biological target: recombinant strep-tagged apo-APC/C, dephosphorylated (UniProt Q9H1A4)
# Sequence of UniProt Q9H1A4 (Q9H1A4 whole entry, looked up): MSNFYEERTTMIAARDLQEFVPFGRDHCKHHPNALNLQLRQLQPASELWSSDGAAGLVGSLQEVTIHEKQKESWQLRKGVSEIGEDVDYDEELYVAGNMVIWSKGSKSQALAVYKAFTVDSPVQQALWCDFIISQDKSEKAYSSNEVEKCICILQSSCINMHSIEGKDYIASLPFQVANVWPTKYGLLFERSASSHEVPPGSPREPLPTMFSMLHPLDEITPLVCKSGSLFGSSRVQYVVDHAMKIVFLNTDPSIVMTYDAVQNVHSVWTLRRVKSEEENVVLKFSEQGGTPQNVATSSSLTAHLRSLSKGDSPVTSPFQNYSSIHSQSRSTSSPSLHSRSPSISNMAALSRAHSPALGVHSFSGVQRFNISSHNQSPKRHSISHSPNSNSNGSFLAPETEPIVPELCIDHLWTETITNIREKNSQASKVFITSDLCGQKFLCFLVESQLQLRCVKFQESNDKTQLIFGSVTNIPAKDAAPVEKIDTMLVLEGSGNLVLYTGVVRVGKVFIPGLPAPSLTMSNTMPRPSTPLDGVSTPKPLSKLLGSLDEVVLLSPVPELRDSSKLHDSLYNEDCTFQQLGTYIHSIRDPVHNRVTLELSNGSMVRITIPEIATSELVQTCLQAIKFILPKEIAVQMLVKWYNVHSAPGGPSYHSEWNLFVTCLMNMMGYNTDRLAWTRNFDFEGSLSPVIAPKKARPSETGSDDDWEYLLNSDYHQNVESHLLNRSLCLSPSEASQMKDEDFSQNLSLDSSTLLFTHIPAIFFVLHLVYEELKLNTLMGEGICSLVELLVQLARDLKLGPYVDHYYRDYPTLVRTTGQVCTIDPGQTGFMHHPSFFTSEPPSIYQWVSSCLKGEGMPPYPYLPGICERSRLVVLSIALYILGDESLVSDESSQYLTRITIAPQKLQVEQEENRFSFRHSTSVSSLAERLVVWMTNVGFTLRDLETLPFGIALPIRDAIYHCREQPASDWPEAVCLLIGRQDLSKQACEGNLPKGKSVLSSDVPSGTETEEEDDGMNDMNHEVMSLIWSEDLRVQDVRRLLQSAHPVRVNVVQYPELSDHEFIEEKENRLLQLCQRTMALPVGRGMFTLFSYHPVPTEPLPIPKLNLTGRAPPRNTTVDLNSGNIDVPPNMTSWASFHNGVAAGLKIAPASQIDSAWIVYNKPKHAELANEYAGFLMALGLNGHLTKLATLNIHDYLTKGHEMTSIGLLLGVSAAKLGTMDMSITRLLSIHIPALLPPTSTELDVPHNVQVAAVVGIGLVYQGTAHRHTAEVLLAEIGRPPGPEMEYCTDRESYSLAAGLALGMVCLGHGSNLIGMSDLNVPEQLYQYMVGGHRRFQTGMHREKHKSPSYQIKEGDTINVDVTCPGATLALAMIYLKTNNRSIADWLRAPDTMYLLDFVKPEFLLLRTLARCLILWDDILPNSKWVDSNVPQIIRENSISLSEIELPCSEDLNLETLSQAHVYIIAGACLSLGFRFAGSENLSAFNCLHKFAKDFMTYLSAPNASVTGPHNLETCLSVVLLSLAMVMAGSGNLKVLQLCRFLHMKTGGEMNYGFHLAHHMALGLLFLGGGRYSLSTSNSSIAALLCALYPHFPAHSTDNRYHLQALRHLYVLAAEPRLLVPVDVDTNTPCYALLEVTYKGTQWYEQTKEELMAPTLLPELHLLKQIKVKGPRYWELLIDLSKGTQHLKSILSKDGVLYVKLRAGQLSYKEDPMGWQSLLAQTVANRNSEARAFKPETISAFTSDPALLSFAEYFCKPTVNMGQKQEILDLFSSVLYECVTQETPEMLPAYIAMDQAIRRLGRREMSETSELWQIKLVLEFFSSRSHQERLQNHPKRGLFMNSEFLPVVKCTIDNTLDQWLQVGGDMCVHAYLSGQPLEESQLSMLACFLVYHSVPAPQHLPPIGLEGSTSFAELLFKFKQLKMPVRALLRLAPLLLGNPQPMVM
substance,measurement,value
CDK1/CKS1/cyclin B1^wt complex (CCC^wt) (from UniProt P06493 1-297; P61024 1-79; P14635 1-433),"phosphosites on dephosphorylated recombinant APC/C after in vitro phosphorylation, by mass spectrometry",28 phosphosites
